In US20240360474 (Scribe Therapeutics Inc., published 2024):
Positions count from the first letter of the chain named.

How the values were obtained:
Test in all cases: cleavage_in_vitro
CasX variant 438 = target: T1, CasX variant 438 (synthetic construct)
T1 chain: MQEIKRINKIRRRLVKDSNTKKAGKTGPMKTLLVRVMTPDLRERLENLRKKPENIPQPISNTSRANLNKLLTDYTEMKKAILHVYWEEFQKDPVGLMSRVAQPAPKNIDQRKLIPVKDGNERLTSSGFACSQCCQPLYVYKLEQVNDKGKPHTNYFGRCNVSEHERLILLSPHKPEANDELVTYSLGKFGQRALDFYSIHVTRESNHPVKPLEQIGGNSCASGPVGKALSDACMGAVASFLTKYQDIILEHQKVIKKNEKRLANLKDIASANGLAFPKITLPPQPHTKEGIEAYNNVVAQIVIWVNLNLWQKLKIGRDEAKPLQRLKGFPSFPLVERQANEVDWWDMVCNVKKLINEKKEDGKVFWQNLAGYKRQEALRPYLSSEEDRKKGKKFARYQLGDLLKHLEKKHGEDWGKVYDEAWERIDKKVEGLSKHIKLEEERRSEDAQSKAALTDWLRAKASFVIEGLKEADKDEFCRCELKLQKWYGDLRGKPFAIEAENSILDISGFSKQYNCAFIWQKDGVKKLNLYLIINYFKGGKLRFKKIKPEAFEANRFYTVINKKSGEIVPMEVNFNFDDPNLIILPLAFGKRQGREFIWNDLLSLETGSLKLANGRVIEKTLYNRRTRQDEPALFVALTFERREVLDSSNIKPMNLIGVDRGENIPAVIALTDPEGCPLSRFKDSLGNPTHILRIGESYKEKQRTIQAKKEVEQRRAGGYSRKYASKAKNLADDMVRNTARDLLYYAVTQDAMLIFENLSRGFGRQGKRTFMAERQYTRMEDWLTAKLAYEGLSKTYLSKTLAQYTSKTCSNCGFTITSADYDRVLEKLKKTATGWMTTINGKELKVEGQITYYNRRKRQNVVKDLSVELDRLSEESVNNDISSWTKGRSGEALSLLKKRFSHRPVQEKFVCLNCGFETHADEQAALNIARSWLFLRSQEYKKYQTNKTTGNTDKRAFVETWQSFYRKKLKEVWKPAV

CasX 2 (reference CasX) = target: T2, CasX 2 (reference CasX) (Planctomycetes)
T2 chain: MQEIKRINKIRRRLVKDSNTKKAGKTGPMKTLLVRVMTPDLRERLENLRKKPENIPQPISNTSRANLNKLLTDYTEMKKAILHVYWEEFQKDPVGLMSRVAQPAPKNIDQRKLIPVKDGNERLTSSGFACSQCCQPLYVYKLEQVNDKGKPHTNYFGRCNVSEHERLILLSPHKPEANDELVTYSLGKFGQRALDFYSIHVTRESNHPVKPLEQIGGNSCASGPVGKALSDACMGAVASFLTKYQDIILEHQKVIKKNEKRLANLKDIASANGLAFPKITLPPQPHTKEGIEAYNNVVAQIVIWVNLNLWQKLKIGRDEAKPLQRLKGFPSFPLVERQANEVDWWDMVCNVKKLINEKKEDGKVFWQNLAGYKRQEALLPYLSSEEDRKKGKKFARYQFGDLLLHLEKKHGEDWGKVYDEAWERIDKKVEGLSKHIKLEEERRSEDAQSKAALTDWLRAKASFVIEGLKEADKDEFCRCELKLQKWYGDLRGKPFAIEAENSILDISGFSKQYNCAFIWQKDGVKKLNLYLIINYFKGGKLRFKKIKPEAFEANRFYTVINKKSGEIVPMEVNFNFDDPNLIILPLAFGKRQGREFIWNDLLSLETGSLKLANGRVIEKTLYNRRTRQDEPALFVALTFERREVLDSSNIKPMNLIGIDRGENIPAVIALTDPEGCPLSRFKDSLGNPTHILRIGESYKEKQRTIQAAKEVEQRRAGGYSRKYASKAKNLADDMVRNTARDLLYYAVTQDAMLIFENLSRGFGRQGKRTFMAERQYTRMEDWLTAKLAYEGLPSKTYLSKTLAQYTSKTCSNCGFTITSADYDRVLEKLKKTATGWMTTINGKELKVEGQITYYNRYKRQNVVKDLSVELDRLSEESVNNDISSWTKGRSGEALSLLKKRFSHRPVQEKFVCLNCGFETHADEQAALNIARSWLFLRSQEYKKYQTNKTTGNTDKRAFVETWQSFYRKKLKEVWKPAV

CasX variant 119 = target: T3, CasX variant 119 (synthetic construct)
T3 chain: T1 chain with L399F, K404L, V658I, R856Y

CasX variant 491 = target: T4, CasX variant 491 (synthetic construct)
T4 chain: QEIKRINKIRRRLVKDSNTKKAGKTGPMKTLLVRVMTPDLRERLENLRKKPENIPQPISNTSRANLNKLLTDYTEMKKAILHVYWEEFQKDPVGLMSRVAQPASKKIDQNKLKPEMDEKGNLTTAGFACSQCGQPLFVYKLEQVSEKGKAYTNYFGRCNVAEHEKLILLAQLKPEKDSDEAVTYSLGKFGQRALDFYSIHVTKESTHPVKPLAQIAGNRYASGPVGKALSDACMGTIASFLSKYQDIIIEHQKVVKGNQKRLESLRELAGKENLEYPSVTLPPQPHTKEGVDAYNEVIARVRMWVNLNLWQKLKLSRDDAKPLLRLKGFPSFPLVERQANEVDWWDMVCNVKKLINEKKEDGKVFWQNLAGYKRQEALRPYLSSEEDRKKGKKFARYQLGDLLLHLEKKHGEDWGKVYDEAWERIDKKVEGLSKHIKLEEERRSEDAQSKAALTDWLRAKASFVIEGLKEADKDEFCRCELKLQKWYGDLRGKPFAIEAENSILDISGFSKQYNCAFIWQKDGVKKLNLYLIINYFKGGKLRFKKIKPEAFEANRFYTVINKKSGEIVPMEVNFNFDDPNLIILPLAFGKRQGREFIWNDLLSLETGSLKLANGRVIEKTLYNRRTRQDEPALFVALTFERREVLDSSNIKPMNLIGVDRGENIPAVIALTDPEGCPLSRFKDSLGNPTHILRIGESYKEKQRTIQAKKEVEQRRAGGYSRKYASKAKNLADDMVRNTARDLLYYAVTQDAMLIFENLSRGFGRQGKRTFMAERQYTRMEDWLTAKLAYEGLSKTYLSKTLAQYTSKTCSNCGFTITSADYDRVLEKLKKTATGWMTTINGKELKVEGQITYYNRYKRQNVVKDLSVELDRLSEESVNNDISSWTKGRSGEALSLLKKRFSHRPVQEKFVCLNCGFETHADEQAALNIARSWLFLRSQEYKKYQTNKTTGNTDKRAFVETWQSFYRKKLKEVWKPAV

B1: gRNA scaffold 174 + spacer 7.37 ; 7.37 CTC PAM target (ssRNA ; dsDNA)
RNA: ACUGGCGCUUUUAUCUGAUUACUUUGAGAGCCAUCACCAGCGACUAUGUCGUAGUGGGUAAAGCUCCCUCUUCGGAGGGAGCAUCAAAGGGGCCGAGAUGUCUCGCUCC
DNA 1: TGAAGCTGACAGCACTCGGGCCGAGATGTCTCGCTCCGTGGCCTTAGCTGTGCTCGCGCT
DNA 2: AGCGCGAGCACAGCTAAGGCCACGGAGCGAGACATCTCGGCCCGAGTGCTGTCAGCTTCA
activity (CasX variant 438): 0.212 min⁻¹ | activity (CasX 2 (reference CasX)): 0.00929 min⁻¹ | activity (CasX variant 119): 0.303 min⁻¹

B2: gRNA scaffold 174 + spacer 7.37 ; 7.37 TTT PAM target (ssRNA ; dsDNA)
RNA: B1 RNA
DNA 1: B1 DNA 1 with C15T, C17T
DNA 2: B1 DNA 2 with G44A, G46A
activity (CasX variant 491): 1.33 min⁻¹

B3: gRNA scaffold 174 + spacer 7.37 ; 7.37 ATC PAM target (ssRNA ; dsDNA)
RNA: B1 RNA
DNA 1: B1 DNA 1 with C15A
DNA 2: B1 DNA 2 with G46T
activity (CasX variant 438): 0.408 min⁻¹ | activity (CasX 2 (reference CasX)): 0.0187 min⁻¹ | activity (CasX variant 119): 0.54 min⁻¹

B4: gRNA scaffold 174 + spacer 7.37 ; 7.37 GTC PAM target (ssRNA ; dsDNA)
RNA: B1 RNA
DNA 1: B1 DNA 1 with C15G
DNA 2: B1 DNA 2 with G46C
activity (CasX 2 (reference CasX)): 0.00375 min⁻¹ | activity (CasX variant 119): 0.0864 min⁻¹
